Test results reported in the supplement of paper PMC10567573.

B1: USP39 (parent)
chain: FQGSMRIFTKKLPHPDLPAEEKEQ

Variants of: B1
Experiment: protein stability index of a GFP-peptide fusion (GPS, HEK-293T) (PSI 1-6); higher = more stable
Settings: c terminus: a fixed tail appended
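Also: lentivirally expressed fusions sorted by FACS into six bins by GFP to DsRed ratio, PSI derived from sequencing read proportions per bin multiplied by bin number.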

**Q.** Which protein stability index does the source give for FQGSMRIFKKKLPHPDLPAEEKEQ here?
**A.** 2.08

**Q.** Which protein stability index does the source give for FQGSMRIFFKKLPHPDLPAEEKEQ here?
**A.** 1.89

**Q.** With FQGSMRIFLKKLPHPDLPAEEKEQ as the variant, how does the protein stability index read?
**A.** 1.92

**Q.** With FQGSMRIFIKKLPHPDLPAEEKEQ as the variant, how does the protein stability index read?
**A.** 1.66

**Q.** For FQGSMRIFSKKLPHPDLPAEEKEQ, which protein stability index is on record?
**A.** 1.75

**Q.** With FQGSMRIFYKKLPHPDLPAEEKEQ as the variant, how does the protein stability index read?
**A.** 1.94

**Q.** Which protein stability index does the source give for FQGSMRIFAKKLPHPDLPAEEKEQ here?
**A.** 2.04

**Q.** Which protein stability index does the source give for FQGSMRIFEKKLPHPDLPAEEKEQ here?
**A.** 3.07

**Q.** For FQGSMRIFCKKLPHPDLPAEEKEQ, which protein stability index is on record?
**A.** 1.69

**Q.** For FQGSMRIFPKKLPHPDLPAEEKEQ, which protein stability index is on record?
**A.** 3.14

**Q.** For FQGSMRIFVKKLPHPDLPAEEKEQ, which protein stability index is on record?
**A.** 1.5

**Q.** For FQGSMRIFGKKLPHPDLPAEEKEQ, which protein stability index is on record?
**A.** 2.25

**Q.** With FQGSMRIFMKKLPHPDLPAEEKEQ as the variant, how does the protein stability index read?
**A.** 2.03

**Q.** For FQGSMRIFRKKLPHPDLPAEEKEQ, which protein stability index is on record?
**A.** 2.23

**Q.** Which protein stability index does the source give for FQGSMRIFHKKLPHPDLPAEEKEQ here?
**A.** 2

**Q.** For FQGSMRIFWKKLPHPDLPAEEKEQ, which protein stability index is on record?
**A.** 2.23

**Q.** Which protein stability index does the source give for FQGSMRIFDKKLPHPDLPAEEKEQ here?
**A.** 2.73

**Q.** Which protein stability index does the source give for FQGSMRIFNKKLPHPDLPAEEKEQ here?
**A.** 2.65

**Q.** Which protein stability index does the source give for FQGSMRIFQKKLPHPDLPAEEKEQ here?
**A.** 2.19

**Q.** Which protein stability index does the source give for FQGSMRIFTKKLDHPDLPAEEKEQ here?
**A.** 1.72

**Q.** For FQGSMRIFTKKLAHPDLPAEEKEQ, which protein stability index is on record?
**A.** 2.94

**Q.** For FQGSMRIFTKKLFHPDLPAEEKEQ, which protein stability index is on record?
**A.** 1.99

**Q.** Which protein stability index does the source give for FQGSMRIFTKKLEHPDLPAEEKEQ here?
**A.** 1.98

**Q.** With FQGSMRIFTKKLCHPDLPAEEKEQ as the variant, how does the protein stability index read?
**A.** 2.05

**Q.** Which protein stability index does the source give for FQGSMRIFTKGLPHPDLPAEEKEQ here?
**A.** 1.94

**Q.** For FQGSMRIFTKVLPHPDLPAEEKEQ, which protein stability index is on record?
**A.** 2

**Q.** With FQGSMRIFTKHLPHPDLPAEEKEQ as the variant, how does the protein stability index read?
**A.** 1.57

**Q.** With FQGSMRIFTKRLPHPDLPAEEKEQ as the variant, how does the protein stability index read?
**A.** 2.06

**Q.** With FQGSMRIFTKYLPHPDLPAEEKEQ as the variant, how does the protein stability index read?
**A.** 1.71

**Q.** For FQGSMRIFTKFLPHPDLPAEEKEQ, which protein stability index is on record?
**A.** 1.7

**Q.** With FQGSMRIFTKTLPHPDLPAEEKEQ as the variant, how does the protein stability index read?
**A.** 1.96

**Q.** For FQGSMRIFTKSLPHPDLPAEEKEQ, which protein stability index is on record?
**A.** 1.9

**Q.** Which protein stability index does the source give for FQGSMRIFTKCLPHPDLPAEEKEQ here?
**A.** 3.14

**Q.** Which protein stability index does the source give for FQGSMRIFTKPLPHPDLPAEEKEQ here?
**A.** 1.84

**Q.** With FQGSMRIFTKNLPHPDLPAEEKEQ as the variant, how does the protein stability index read?
**A.** 2.35

**Q.** For FQGSMRIFTKWLPHPDLPAEEKEQ, which protein stability index is on record?
**A.** 1.85

**Q.** With FQGSMRIFTKDLPHPDLPAEEKEQ as the variant, how does the protein stability index read?
**A.** 2.08

**Q.** With FQGSMRIFTKALPHPDLPAEEKEQ as the variant, how does the protein stability index read?
**A.** 1.68

**Q.** With FQGSMRIFTKLLPHPDLPAEEKEQ as the variant, how does the protein stability index read?
**A.** 1.65

**Q.** Which protein stability index does the source give for FQGSMRIFTKQLPHPDLPAEEKEQ here?
**A.** 1.85

**Q.** Which protein stability index does the source give for FQGSMRIFTKMLPHPDLPAEEKEQ here?
**A.** 1.61

**Q.** For FQGSMRIFTKELPHPDLPAEEKEQ, which protein stability index is on record?
**A.** 2.85

**Q.** With FQGSMRIFTKILPHPDLPAEEKEQ as the variant, how does the protein stability index read?
**A.** 1.87

**Q.** For FQGSMRIFTSKLPHPDLPAEEKEQ, which protein stability index is on record?
**A.** 2.44

**Q.** Which protein stability index does the source give for FQGSMRIFTWKLPHPDLPAEEKEQ here?
**A.** 1.81

**Q.** For FQGSMRIFTGKLPHPDLPAEEKEQ, which protein stability index is on record?
**A.** 2.2

**Q.** For FQGSMRIFTRKLPHPDLPAEEKEQ, which protein stability index is on record?
**A.** 1.61

**Q.** Which protein stability index does the source give for FQGSMRIFTAKLPHPDLPAEEKEQ here?
**A.** 2.08

**Q.** Which protein stability index does the source give for FQGSMRIFTQKLPHPDLPAEEKEQ here?
**A.** 1.84

**Q.** With FQGSMRIFTMKLPHPDLPAEEKEQ as the variant, how does the protein stability index read?
**A.** 1.37

**Q.** Which protein stability index does the source give for FQGSMRIFTVKLPHPDLPAEEKEQ here?
**A.** 2.22

**Q.** With FQGSMRIFTNKLPHPDLPAEEKEQ as the variant, how does the protein stability index read?
**A.** 2.81

**Q.** With FQGSMRIFTYKLPHPDLPAEEKEQ as the variant, how does the protein stability index read?
**A.** 1.94

**Q.** Which protein stability index does the source give for FQGSMRIFTDKLPHPDLPAEEKEQ here?
**A.** 2.07

**Q.** For FQGSMRIFTTKLPHPDLPAEEKEQ, which protein stability index is on record?
**A.** 1.19

**Q.** Which protein stability index does the source give for FQGSMRIFTHKLPHPDLPAEEKEQ here?
**A.** 2.37

**Q.** Which protein stability index does the source give for FQGSMRIFTLKLPHPDLPAEEKEQ here?
**A.** 2.53

**Q.** With FQGSMRIFTCKLPHPDLPAEEKEQ as the variant, how does the protein stability index read?
**A.** 3.86

**Q.** With FQGSMRIFTIKLPHPDLPAEEKEQ as the variant, how does the protein stability index read?
**A.** 1.74

**Q.** Which protein stability index does the source give for FQGSMRIFTFKLPHPDLPAEEKEQ here?
**A.** 2.03

**Q.** Which protein stability index does the source give for FQGSMRIFTPKLPHPDLPAEEKEQ here?
**A.** 3.29

**Q.** For FQGSMRIFTKKIPHPDLPAEEKEQ, which protein stability index is on record?
**A.** 1.91

**Q.** Which protein stability index does the source give for FQGSMRIFTKKAPHPDLPAEEKEQ here?
**A.** 1.62

**Q.** For FQGSMRIFTKKTPHPDLPAEEKEQ, which protein stability index is on record?
**A.** 1.93

**Q.** Which protein stability index does the source give for FQGSMRIFTKKWPHPDLPAEEKEQ here?
**A.** 1.45

**Q.** For FQGSMRIFTKKGPHPDLPAEEKEQ, which protein stability index is on record?
**A.** 1.72

**Q.** With FQGSMRIFTKKSPHPDLPAEEKEQ as the variant, how does the protein stability index read?
**A.** 2.41

**Q.** With FQGSMRIFTKKFPHPDLPAEEKEQ as the variant, how does the protein stability index read?
**A.** 1.47

**Q.** Which protein stability index does the source give for FQGSMRIFTKKHPHPDLPAEEKEQ here?
**A.** 2.17

**Q.** For FQGSMRIFTKKEPHPDLPAEEKEQ, which protein stability index is on record?
**A.** 1.71

**Q.** Which protein stability index does the source give for FQGSMRIFTKKQPHPDLPAEEKEQ here?
**A.** 2.23

**Q.** Which protein stability index does the source give for FQGSMRIFTKKPPHPDLPAEEKEQ here?
**A.** 2.45

**Q.** Which protein stability index does the source give for FQGSMRIFTKKCPHPDLPAEEKEQ here?
**A.** 2.15

**Q.** For FQGSMRIFTKKRPHPDLPAEEKEQ, which protein stability index is on record?
**A.** 1.32

**Q.** Which protein stability index does the source give for FQGSMRIFTKKDPHPDLPAEEKEQ here?
**A.** 2.63

**Q.** For FQGSMRIFTKKMPHPDLPAEEKEQ, which protein stability index is on record?
**A.** 2.37

**Q.** With FQGSMRIFTKKYPHPDLPAEEKEQ as the variant, how does the protein stability index read?
**A.** 2

**Q.** With FQGSMRIFTKKNPHPDLPAEEKEQ as the variant, how does the protein stability index read?
**A.** 2.05

**Q.** Which protein stability index does the source give for FQGSMRIFTKKKPHPDLPAEEKEQ here?
**A.** 1.86

**Q.** With FQGSMRIFTKKVPHPDLPAEEKEQ as the variant, how does the protein stability index read?
**A.** 1.74

**Q.** For FQGSMRIWTKKLPHPDLPAEEKEQ, which protein stability index is on record?
**A.** 1.56

**Q.** Which protein stability index does the source give for FQGSMRITTKKLPHPDLPAEEKEQ here?
**A.** 3.89

**Q.** Which protein stability index does the source give for FQGSMRIKTKKLPHPDLPAEEKEQ here?
**A.** 3.64

**Q.** Which protein stability index does the source give for FQGSMRIPTKKLPHPDLPAEEKEQ here?
**A.** 3.42

**Q.** Which protein stability index does the source give for FQGSMRILTKKLPHPDLPAEEKEQ here?
**A.** 3.28

**Q.** Which protein stability index does the source give for FQGSMRIMTKKLPHPDLPAEEKEQ here?
**A.** 3.52

**Q.** Which protein stability index does the source give for FQGSMRINTKKLPHPDLPAEEKEQ here?
**A.** 3.68

**Q.** With FQGSMRIYTKKLPHPDLPAEEKEQ as the variant, how does the protein stability index read?
**A.** 2.35

**Q.** For FQGSMRIITKKLPHPDLPAEEKEQ, which protein stability index is on record?
**A.** 3.17

**Q.** With FQGSMRIVTKKLPHPDLPAEEKEQ as the variant, how does the protein stability index read?
**A.** 3.04

**Q.** With FQGSMRISTKKLPHPDLPAEEKEQ as the variant, how does the protein stability index read?
**A.** 3.29

**Q.** With FQGSMRIHTKKLPHPDLPAEEKEQ as the variant, how does the protein stability index read?
**A.** 3.33

**Q.** Which protein stability index does the source give for FQGSMRIRTKKLPHPDLPAEEKEQ here?
**A.** 3.59

**Q.** Which protein stability index does the source give for FQGSMRIQTKKLPHPDLPAEEKEQ here?
**A.** 3.77
